Experimental data as given in publication PMC9482650, “Quantitative fragmentomics allow affinity mapping of interactomes” (Nature Communications, 2022).

T1: GRIP1_2, Q9Y3R0
T1 sequence (Q9Y3R0 145-248, limits assumed, looked up): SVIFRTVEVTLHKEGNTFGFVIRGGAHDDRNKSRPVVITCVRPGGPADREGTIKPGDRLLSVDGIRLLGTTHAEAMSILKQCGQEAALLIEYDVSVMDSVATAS

T2: LNX2_3, Q8N448
T2 sequence (Q8N448 463-564, limits assumed, looked up): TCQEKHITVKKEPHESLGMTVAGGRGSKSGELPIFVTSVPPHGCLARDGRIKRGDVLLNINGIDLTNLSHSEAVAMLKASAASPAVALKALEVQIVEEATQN

T3: PTPN13_1, Q12923
T3 sequence (Q12923 1088-1188, limits assumed, looked up): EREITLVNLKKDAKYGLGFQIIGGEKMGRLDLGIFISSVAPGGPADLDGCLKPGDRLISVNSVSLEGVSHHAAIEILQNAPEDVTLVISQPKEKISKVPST

T4: RAPGEF6, Q8TEU7
T4 sequence (Q8TEU7 525-625, limits assumed, looked up): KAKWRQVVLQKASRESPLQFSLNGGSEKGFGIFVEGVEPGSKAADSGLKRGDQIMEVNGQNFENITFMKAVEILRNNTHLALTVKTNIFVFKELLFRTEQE

T5: APBA1_1, Q02410
T5 sequence (Q02410 651-752, limits assumed, looked up): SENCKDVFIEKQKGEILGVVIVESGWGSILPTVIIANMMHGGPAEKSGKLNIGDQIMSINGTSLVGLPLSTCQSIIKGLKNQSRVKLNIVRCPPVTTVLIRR

T6: TIAM2, Q8IVF5
T6 sequence (Q8IVF5 885-986, limits assumed, looked up): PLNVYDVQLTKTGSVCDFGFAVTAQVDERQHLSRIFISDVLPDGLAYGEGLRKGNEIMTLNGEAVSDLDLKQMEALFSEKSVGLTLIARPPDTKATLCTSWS

T7: MPDZ_12, O75970
T7 sequence (O75970 1857-1958, limits assumed, looked up): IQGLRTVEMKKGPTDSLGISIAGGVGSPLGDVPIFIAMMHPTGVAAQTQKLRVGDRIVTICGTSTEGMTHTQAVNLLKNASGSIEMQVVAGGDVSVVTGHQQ

T8: MPDZ_5, O75970
T8 sequence (O75970 695-796, limits assumed, looked up): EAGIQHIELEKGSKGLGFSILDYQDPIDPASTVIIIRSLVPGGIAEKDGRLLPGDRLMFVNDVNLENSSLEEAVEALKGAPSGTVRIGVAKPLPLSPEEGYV

T9: RHPN1, Q8TCX5
T9 sequence (Q8TCX5 508-602, limits assumed, looked up): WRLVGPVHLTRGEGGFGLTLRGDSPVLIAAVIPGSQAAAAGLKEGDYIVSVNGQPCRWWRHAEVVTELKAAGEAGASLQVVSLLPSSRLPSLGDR

T10: PDZD2_2, O15018
T10 sequence (O15018 329-429, limits assumed, looked up): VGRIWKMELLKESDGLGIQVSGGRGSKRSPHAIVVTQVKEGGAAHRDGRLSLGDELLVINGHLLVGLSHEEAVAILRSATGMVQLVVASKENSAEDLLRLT


Biological target: DLG4_3, P78352
Test: holdup assay
Set-up: key: below the threshold = too weak to quantify, mostly under pKd 3.1 to 4
Conditions: plain residues with an end cap or a label only (N-terminal biotin on a linker: ado-ado)

Sequence of DLG4_3, P78352 (P78352 306-403): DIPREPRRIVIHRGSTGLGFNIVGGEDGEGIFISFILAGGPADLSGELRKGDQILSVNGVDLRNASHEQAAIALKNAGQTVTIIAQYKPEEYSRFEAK

pKd	Binder
below the threshold	GDSSRKEYFI [GYPC, P04921]
below the threshold	QLGSPTADLA [SIPA1, Q96FS4]

Biological target: T1, GRIP1_2, Q9Y3R0
Test: holdup assay
Set-up: key: below the threshold = too weak to quantify, mostly under pKd 3.1 to 4
Conditions: plain residues with an end cap or a label only (N-terminal biotin on a linker: ado-ado)

pKd	Binder
below the threshold	GDSSRKEYFI [GYPC, P04921]
below the threshold	QLGSPTADLA [SIPA1, Q96FS4]

Biological target: T2, LNX2_3, Q8N448
Test: holdup assay
Set-up: key: below the threshold = too weak to quantify, mostly under pKd 3.1 to 4
Conditions: plain residues with an end cap or a label only (N-terminal biotin on a linker: ado-ado)

pKd	Binder
below the threshold	GDSSRKEYFI [GYPC, P04921]
below the threshold	QLGSPTADLA [SIPA1, Q96FS4]

Biological target: NHERF4_1, Q86UT5-2
Test: holdup assay
Set-up: key: below the threshold = too weak to quantify, mostly under pKd 3.1 to 4
Conditions: plain residues with an end cap or a label only (N-terminal biotin on a linker: ado-ado)

Sequence of NHERF4_1, Q86UT5-2 (Q86UT5 other isoform, or with tags, fused parts or gaps): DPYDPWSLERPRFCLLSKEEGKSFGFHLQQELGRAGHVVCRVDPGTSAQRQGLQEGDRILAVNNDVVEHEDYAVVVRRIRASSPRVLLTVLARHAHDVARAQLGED

pKd	Binder
below the threshold	GDSSRKEYFI [GYPC, P04921]
below the threshold	QLGSPTADLA [SIPA1, Q96FS4]

Biological target: SNX27, Q96L92
Test: holdup assay
Set-up: key: below the threshold = too weak to quantify, mostly under pKd 3.1 to 4
Conditions: plain residues with an end cap or a label only (N-terminal biotin on a linker: ado-ado)

pKd	Binder
below the threshold	GDSSRKEYFI [GYPC, P04921]
below the threshold	QLGSPTADLA [SIPA1, Q96FS4]

Biological target: T3, PTPN13_1, Q12923
Test: holdup assay
Set-up: key: below the threshold = too weak to quantify, mostly under pKd 3.1 to 4
Conditions: plain residues with an end cap or a label only (N-terminal biotin on a linker: ado-ado)

pKd	Binder
below the threshold	GDSSRKEYFI [GYPC, P04921]
below the threshold	QLGSPTADLA [SIPA1, Q96FS4]

Biological target: DLG4_1, P78352
Test: holdup assay
Set-up: key: below the threshold = too weak to quantify, mostly under pKd 3.1 to 4
Conditions: plain residues with an end cap or a label only (N-terminal biotin on a linker: ado-ado)

Sequence of DLG4_1, P78352 (P78352 62-152): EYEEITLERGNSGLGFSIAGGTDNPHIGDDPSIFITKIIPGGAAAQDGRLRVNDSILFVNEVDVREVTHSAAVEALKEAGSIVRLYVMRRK

pKd	Binder
below the threshold	GDSSRKEYFI [GYPC, P04921]
below the threshold	QLGSPTADLA [SIPA1, Q96FS4]

Biological target: T4, RAPGEF6, Q8TEU7
Test: holdup assay
Set-up: key: below the threshold = too weak to quantify, mostly under pKd 3.1 to 4
Conditions: plain residues with an end cap or a label only (N-terminal biotin on a linker: ado-ado)

pKd	Binder
below the threshold	GDSSRKEYFI [GYPC, P04921]
below the threshold	QLGSPTADLA [SIPA1, Q96FS4]

Biological target: T5, APBA1_1, Q02410
Test: holdup assay
Set-up: key: below the threshold = too weak to quantify, mostly under pKd 3.1 to 4
Conditions: plain residues with an end cap or a label only (N-terminal biotin on a linker: ado-ado)

pKd	Binder
3.65	GDSSRKEYFI [GYPC, P04921]
below the threshold	QLGSPTADLA [SIPA1, Q96FS4]

Biological target: GRIP2_7, Q9C0E4
Test: holdup assay
Set-up: key: below the threshold = too weak to quantify, mostly under pKd 3.1 to 4
Conditions: plain residues with an end cap or a label only (N-terminal biotin on a linker: ado-ado)

Sequence of GRIP2_7, Q9C0E4 (Q9C0E4 934-1023): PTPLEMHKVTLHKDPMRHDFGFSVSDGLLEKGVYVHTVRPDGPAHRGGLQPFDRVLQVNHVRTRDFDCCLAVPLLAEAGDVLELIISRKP

pKd	Binder
5.33	GDSSRKEYFI [GYPC, P04921]
below the threshold	QLGSPTADLA [SIPA1, Q96FS4]

Biological target: LNX1_2, Q8TBB1
Test: holdup assay
Set-up: key: below the threshold = too weak to quantify, mostly under pKd 3.1 to 4
Conditions: plain residues with an end cap or a label only (N-terminal biotin on a linker: ado-ado)

Sequence of LNX1_2, Q8TBB1 (Q8TBB1 371-470): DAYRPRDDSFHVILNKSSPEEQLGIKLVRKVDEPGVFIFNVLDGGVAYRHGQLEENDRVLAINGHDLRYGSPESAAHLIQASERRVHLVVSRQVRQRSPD

pKd	Binder
below the threshold	GDSSRKEYFI [GYPC, P04921]
below the threshold	QLGSPTADLA [SIPA1, Q96FS4]

Biological target: FRMPD3, Q5JV73
Test: holdup assay
Set-up: key: below the threshold = too weak to quantify, mostly under pKd 3.1 to 4
Conditions: plain residues with an end cap or a label only (N-terminal biotin on a linker: ado-ado)

Sequence of FRMPD3, Q5JV73 (Q5JV73 12-100): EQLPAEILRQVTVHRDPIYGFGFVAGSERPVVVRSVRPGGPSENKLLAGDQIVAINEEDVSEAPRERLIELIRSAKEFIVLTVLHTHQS

pKd	Binder
below the threshold	GDSSRKEYFI [GYPC, P04921]
below the threshold	QLGSPTADLA [SIPA1, Q96FS4]

Biological target: PARD3_3, Q8TEW0
Test: holdup assay
Set-up: key: below the threshold = too weak to quantify, mostly under pKd 3.1 to 4
Conditions: plain residues with an end cap or a label only (N-terminal biotin on a linker: ado-ado)

Sequence of PARD3_3, Q8TEW0 (Q8TEW0 582-685): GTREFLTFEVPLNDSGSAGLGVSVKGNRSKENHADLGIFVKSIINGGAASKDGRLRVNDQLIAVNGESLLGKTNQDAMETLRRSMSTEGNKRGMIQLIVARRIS

pKd	Binder
4.9	GDSSRKEYFI [GYPC, P04921]
below the threshold	QLGSPTADLA [SIPA1, Q96FS4]

Biological target: LAP2, Q96RT1
Test: holdup assay
Set-up: key: below the threshold = too weak to quantify, mostly under pKd 3.1 to 4
Conditions: plain residues with an end cap or a label only (N-terminal biotin on a linker: ado-ado)

Sequence of LAP2, Q96RT1 (Q96RT1 other isoform, or with tags, fused parts or gaps): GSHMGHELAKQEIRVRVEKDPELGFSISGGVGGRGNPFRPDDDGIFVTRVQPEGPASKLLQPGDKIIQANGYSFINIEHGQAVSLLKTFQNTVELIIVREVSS

pKd	Binder
3.62	GDSSRKEYFI [GYPC, P04921]
below the threshold	QLGSPTADLA [SIPA1, Q96FS4]

Biological target: MAST2, Q6P0Q8
Test: holdup assay
Set-up: key: below the threshold = too weak to quantify, mostly under pKd 3.1 to 4
Conditions: plain residues with an end cap or a label only (N-terminal biotin on a linker: ado-ado)

Sequence of MAST2, Q6P0Q8 (Q6P0Q8 1099-1202): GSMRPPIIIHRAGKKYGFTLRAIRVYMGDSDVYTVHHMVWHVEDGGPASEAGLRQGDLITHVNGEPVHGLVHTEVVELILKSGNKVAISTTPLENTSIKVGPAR

pKd	Binder
3.68	GDSSRKEYFI [GYPC, P04921]
below the threshold	QLGSPTADLA [SIPA1, Q96FS4]

Biological target: Inadl_1, Q8NI35
Test: holdup assay
Set-up: key: below the threshold = too weak to quantify, mostly under pKd 3.1 to 4
Conditions: plain residues with an end cap or a label only (N-terminal biotin on a linker: ado-ado)

Sequence of Inadl_1, Q8NI35 (Q8NI35 113-229): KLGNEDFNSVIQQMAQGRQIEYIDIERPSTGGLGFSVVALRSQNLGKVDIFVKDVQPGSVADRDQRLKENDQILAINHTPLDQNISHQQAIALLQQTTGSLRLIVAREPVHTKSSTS

pKd	Binder
4.12	GDSSRKEYFI [GYPC, P04921]
below the threshold	QLGSPTADLA [SIPA1, Q96FS4]

Biological target: T6, TIAM2, Q8IVF5
Test: holdup assay
Set-up: key: below the threshold = too weak to quantify, mostly under pKd 3.1 to 4
Conditions: plain residues with an end cap or a label only (N-terminal biotin on a linker: ado-ado)

pKd	Binder
4.23	GDSSRKEYFI [GYPC, P04921]
4.24	QLGSPTADLA [SIPA1, Q96FS4]

Biological target: FRMPD2_1, Q68DX3
Test: holdup assay
Set-up: key: below the threshold = too weak to quantify, mostly under pKd 3.1 to 4
Conditions: plain residues with an end cap or a label only (N-terminal biotin on a linker: ado-ado)

Sequence of FRMPD2_1, Q68DX3 (Q68DX3 770-861): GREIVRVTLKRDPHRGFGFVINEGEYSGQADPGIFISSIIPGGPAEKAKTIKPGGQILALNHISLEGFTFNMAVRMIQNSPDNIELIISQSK

pKd	Binder
below the threshold	GDSSRKEYFI [GYPC, P04921]
below the threshold	QLGSPTADLA [SIPA1, Q96FS4]

Biological target: T7, MPDZ_12, O75970
Test: holdup assay
Set-up: key: below the threshold = too weak to quantify, mostly under pKd 3.1 to 4
Conditions: plain residues with an end cap or a label only (N-terminal biotin on a linker: ado-ado)

pKd	Binder
3.5	GDSSRKEYFI [GYPC, P04921]
3.75	QLGSPTADLA [SIPA1, Q96FS4]

Biological target: T8, MPDZ_5, O75970
Test: holdup assay
Set-up: key: below the threshold = too weak to quantify, mostly under pKd 3.1 to 4
Conditions: plain residues with an end cap or a label only (N-terminal biotin on a linker: ado-ado)

pKd	Binder
4.66	GDSSRKEYFI [GYPC, P04921]
below the threshold	QLGSPTADLA [SIPA1, Q96FS4]

Biological target: MAGI2_2, Q86UL8
Test: holdup assay
Set-up: key: below the threshold = too weak to quantify, mostly under pKd 3.1 to 4
Conditions: plain residues with an end cap or a label only (N-terminal biotin on a linker: ado-ado)

Sequence of MAGI2_2, Q86UL8 (Q86UL8 410-522): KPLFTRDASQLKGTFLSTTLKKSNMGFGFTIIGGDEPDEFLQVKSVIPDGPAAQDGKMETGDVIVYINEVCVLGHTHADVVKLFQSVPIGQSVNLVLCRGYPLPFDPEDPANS

pKd	Binder
3.6	GDSSRKEYFI [GYPC, P04921]
below the threshold	QLGSPTADLA [SIPA1, Q96FS4]

Biological target: GRIP2_3, Q9C0E4
Test: holdup assay
Set-up: key: below the threshold = too weak to quantify, mostly under pKd 3.1 to 4
Conditions: plain residues with an end cap or a label only (N-terminal biotin on a linker: ado-ado)

Sequence of GRIP2_3, Q9C0E4 (Q9C0E4 238-339): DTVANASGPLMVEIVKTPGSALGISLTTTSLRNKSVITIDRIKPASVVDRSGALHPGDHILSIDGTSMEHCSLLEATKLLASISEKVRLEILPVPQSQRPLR

pKd	Binder
below the threshold	GDSSRKEYFI [GYPC, P04921]
below the threshold	QLGSPTADLA [SIPA1, Q96FS4]

Biological target: NOS1, P29475
Test: holdup assay
Set-up: key: below the threshold = too weak to quantify, mostly under pKd 3.1 to 4
Conditions: plain residues with an end cap or a label only (N-terminal biotin on a linker: ado-ado)

Sequence of NOS1, P29475 (P29475 9-101): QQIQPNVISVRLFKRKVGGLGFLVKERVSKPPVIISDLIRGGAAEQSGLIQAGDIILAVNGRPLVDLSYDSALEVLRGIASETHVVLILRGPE

pKd	Binder
3.64	GDSSRKEYFI [GYPC, P04921]
below the threshold	QLGSPTADLA [SIPA1, Q96FS4]

Biological target: DLG1_1, Q12959
Test: holdup assay
Set-up: key: below the threshold = too weak to quantify, mostly under pKd 3.1 to 4
Conditions: plain residues with an end cap or a label only (N-terminal biotin on a linker: ado-ado)

pKd	Binder
3.49	GDSSRKEYFI [GYPC, P04921]
below the threshold	QLGSPTADLA [SIPA1, Q96FS4]

Biological target: DLG2_3, Q15700
Test: holdup assay
Set-up: key: below the threshold = too weak to quantify, mostly under pKd 3.1 to 4
Conditions: plain residues with an end cap or a label only (N-terminal biotin on a linker: ado-ado)

pKd	Binder
3.84	GDSSRKEYFI [GYPC, P04921]
3.57	QLGSPTADLA [SIPA1, Q96FS4]

Biological target: T9, RHPN1, Q8TCX5
Test: holdup assay
Set-up: key: below the threshold = too weak to quantify, mostly under pKd 3.1 to 4
Conditions: plain residues with an end cap or a label only (N-terminal biotin on a linker: ado-ado)

pKd	Binder
below the threshold	GDSSRKEYFI [GYPC, P04921]
below the threshold	QLGSPTADLA [SIPA1, Q96FS4]

Biological target: T10, PDZD2_2, O15018
Test: holdup assay
Set-up: key: below the threshold = too weak to quantify, mostly under pKd 3.1 to 4
Conditions: plain residues with an end cap or a label only (N-terminal biotin on a linker: ado-ado)

pKd	Binder
4.28	GDSSRKEYFI [GYPC, P04921]
below the threshold	QLGSPTADLA [SIPA1, Q96FS4]

Biological target: HTRA2, O43464
Test: holdup assay
Set-up: key: below the threshold = too weak to quantify, mostly under pKd 3.1 to 4
Conditions: plain residues with an end cap or a label only (N-terminal biotin on a linker: ado-ado)

Sequence of HTRA2, O43464 (O43464 355-458): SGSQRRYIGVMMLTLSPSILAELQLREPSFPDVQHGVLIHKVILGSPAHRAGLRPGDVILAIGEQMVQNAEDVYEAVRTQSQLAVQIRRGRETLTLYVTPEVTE

pKd	Binder
4.1	GDSSRKEYFI [GYPC, P04921]
below the threshold	QLGSPTADLA [SIPA1, Q96FS4]
